Source: publication PMC11074156

EGFP-full length GRP78 (wild type), P11021 K621A, sequence (P11021 19-654 K621A): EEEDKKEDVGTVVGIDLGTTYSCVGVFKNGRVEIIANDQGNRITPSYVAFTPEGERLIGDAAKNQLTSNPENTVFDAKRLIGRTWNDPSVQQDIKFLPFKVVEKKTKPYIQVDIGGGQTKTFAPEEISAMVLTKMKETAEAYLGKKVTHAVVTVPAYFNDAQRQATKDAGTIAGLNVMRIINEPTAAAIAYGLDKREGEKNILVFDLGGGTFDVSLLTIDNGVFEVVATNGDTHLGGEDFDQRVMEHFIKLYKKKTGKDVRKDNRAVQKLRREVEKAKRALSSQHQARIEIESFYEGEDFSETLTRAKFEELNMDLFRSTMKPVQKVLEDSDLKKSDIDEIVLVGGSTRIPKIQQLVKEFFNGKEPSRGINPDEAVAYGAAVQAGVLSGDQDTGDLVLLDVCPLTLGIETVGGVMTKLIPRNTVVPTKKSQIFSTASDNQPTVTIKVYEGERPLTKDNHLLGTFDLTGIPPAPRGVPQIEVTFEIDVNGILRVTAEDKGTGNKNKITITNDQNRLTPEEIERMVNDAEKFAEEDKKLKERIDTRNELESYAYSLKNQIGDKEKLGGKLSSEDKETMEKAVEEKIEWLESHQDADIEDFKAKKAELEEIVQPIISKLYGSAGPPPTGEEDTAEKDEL
EGFP-full length GRP78 (wild type), P11021 V429Q, sequence (P11021 19-654 V429Q): as the sequence (P11021 19-654 K621A) above, with V411Q, A603K counted along it
EGFP-full length GRP78 (wild type), P11021 R470E, sequence (P11021 19-654 R470E): as the sequence (P11021 19-654 K621A) above, with R452E, A603K counted along it
EGFP-full length GRP78 (wild type), P11021 T518A, sequence (P11021 19-654 T518A): as the sequence (P11021 19-654 K621A) above, with T500A, A603K counted along it
EGFP-full length GRP78 (wild type), P11021 K585A, sequence (P11021 19-654 K585A): as the sequence (P11021 19-654 K621A) above, with K567A, A603K counted along it
EGFP-full length GRP78 (wild type), P11021 R492E, sequence (P11021 19-654 R492E): as the sequence (P11021 19-654 K621A) above, with R474E, A603K counted along it

Each substance was assayed against ZIKV E protein expressed from pcDNA3.1+_19CprME-Zika (with prM) (assay: co-immunoprecipitation (GFP trap beads), western blot band quantitation). Settings: HEK293T/17 cells, 48 h post transfection; parent: est. 1.0; read off a plot.
Work on “EGFP-full length GRP78 (wild type) (from UniProt P11021) R492E” yielded a ratio to parent of 0.47.
With “EGFP-full length GRP78 (wild type) (from UniProt P11021) H477E” the ratio to parent was 1.3.
“EGFP-full length GRP78 (wild type) (from UniProt P11021) T518A” was tested, and the ratio to parent was 0.42.
“EGFP-full length GRP78 (wild type) (from UniProt P11021) K621A” showed a ratio to parent of 0.72.
Substance “EGFP-full length GRP78 (wild type) (from UniProt P11021) V429Q” has a ratio to parent of 1.1.
Substance “EGFP-full length GRP78 (wild type) (from UniProt P11021) K585A” has a ratio to parent of 1.

Each substance was assayed against ATF6 (activating transcription factor 6), endogenous (UniProt P18850) in the same assay as above. Settings: HEK293T/17 cells, 48 h post transfection; parent: est. 1.0; read off a plot.
ATF6 (activating transcription factor 6), endogenous, sequence (P18850 whole entry): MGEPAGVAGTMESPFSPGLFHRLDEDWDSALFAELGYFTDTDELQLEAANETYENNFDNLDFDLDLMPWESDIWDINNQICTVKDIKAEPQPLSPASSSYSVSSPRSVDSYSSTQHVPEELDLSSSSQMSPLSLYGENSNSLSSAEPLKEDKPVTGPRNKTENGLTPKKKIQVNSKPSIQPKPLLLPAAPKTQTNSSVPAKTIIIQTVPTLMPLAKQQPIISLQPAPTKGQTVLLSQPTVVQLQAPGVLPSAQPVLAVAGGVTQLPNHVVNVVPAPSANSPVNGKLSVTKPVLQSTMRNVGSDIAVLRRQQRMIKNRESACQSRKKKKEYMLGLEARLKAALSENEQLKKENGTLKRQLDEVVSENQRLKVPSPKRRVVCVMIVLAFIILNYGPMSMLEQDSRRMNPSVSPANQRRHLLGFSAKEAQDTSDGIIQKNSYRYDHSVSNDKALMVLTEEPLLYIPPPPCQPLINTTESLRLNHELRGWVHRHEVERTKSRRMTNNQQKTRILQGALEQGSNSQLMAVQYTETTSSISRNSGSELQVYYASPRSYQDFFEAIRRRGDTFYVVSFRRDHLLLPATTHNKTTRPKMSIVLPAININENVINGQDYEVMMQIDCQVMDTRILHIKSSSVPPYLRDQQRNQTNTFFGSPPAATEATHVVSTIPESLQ
“EGFP-full length GRP78 (wild type), P11021 R470E” gave a ratio to parent of 0.95.
“EGFP-full length GRP78 (wild type), P11021 K621A” was tested, and the ratio to parent was 0.82.
“EGFP-full length GRP78 (wild type), P11021 T518A” was tested, and the ratio to parent was 0.4.
“EGFP-full length GRP78 (wild type), P11021 R492E” was tested, and the ratio to parent was 0.28.
With “EGFP-full length GRP78 (wild type), P11021 V429Q” the ratio to parent was 0.98.
“EGFP-full length GRP78 (wild type), P11021 K585A” was tested, and the ratio to parent was 0.82.
